For 15 sequences, Kd results are on record in the Immune Epitope Database (IEDB).

Experiment [1] concerns the target HLA-B*40:01. As to the kind of experiment: IEDB peptide-MHC binding, purified MHC/competitive/radioactivity; filed as Kd, often an IC50 or EC50 that approximates it; ≥ and ≤ were set here for values at or beyond the usual limits of such assays.
In a further experiment the target is HLA-B*40:02. Described as above.
In a further experiment the target is HLA-B*44:03. The experiment is described as above.
The next experiment has as its target HLA-B*18:01. The description is as above.
The target in the next experiment is HLA-B*45:01. Described as above.
For another experiment, the target named is HLA-B*44:02. Described as above.
In experiment [2] the target is HLA-A*26:01. As to the kind of experiment: IEDB peptide-MHC binding, purified MHC/competitive/fluorescence; filed as Kd, often an IC50 or EC50 that approximates it; ≥ and ≤ were set here for values at or beyond the usual limits of such assays. The following applies: source organism: Bacillus anthracis str. A2012.
The next experiment deals with HLA-B*39:01. The experiment is described as above. The settings on record: source organism: Bacillus anthracis str. A0488.
A further experiment deals with HLA-B*08:01. As to the kind of experiment: IEDB peptide-MHC binding, purified MHC/direct/fluorescence; filed as Kd, often an IC50 or EC50 that approximates it; ≥ and ≤ were set here for values at or beyond the usual limits of such assays.
Experiment [3] deals with HLA-B*40:01. Described as above. The settings on record: source organism: Shewanella violacea.
A further experiment has as its target HLA-B*58:01. The experiment is described as above. The settings on record: source organism: Shewanella violacea.
The target of the next experiment is HLA-A*11:01. The description is as above. The following applies: source organism: Shewanella violacea.
Another experiment deals with HLA-A*02:01. Described as above. The settings on record: source organism: Shewanella violacea.
Another experiment has as its target HLA-B*27:05. The experiment is described as above. The following applies: source organism: Shewanella violacea.
The next experiment deals with HLA-A*69:01. The experiment is described as above. The following applies: source organism: Shewanella violacea.
For experiment [4], the target named is HLA-A*26:01. The description is as above. The following applies: source organism: Haemophilus influenzae.
The target of another experiment is HLA-B*07:02. The description is as above. The following applies: source organism: Shewanella violacea.
In a further experiment the target is HLA-A*03:01. The experiment is described as above. The settings on record: source organism: Shewanella violacea.
The next experiment deals with HLA-A*31:01. Described as above. The following applies: source organism: Shewanella violacea.
In another experiment the target is HLA-A*01:01. The description is as above. The settings on record: source organism: Shewanella violacea.
Setting [5] is: source organism: Mammarenavirus tacaribeense.
Setting [6] is: source organism: Mammarenavirus machupoense.
Setting [7] is: source organism: Mammarenavirus guanaritoense.
Setting [8] is: source organism: Lassa virus Josiah.
[9] abbreviates: source organism: SARS coronavirus Tor2.
The mark [10] stands for this setting: source organism: Mammarenavirus whitewaterense.

On to EEVPTLIKTL, for which the Kd is 7.52 µM with HLA-B*40:01 [1] (setting [5]); 6.32 µM with HLA-B*40:02 (setting [5]); 3.32 µM in the experiment with HLA-B*44:03 (setting [5]); at least 70.4 µM with HLA-B*18:01 (setting [5]); 3.02 µM in the experiment with HLA-B*45:01 (setting [5]); 8.59 µM with HLA-B*44:02 (setting [5]).

Consider KEINFLSQT, for which the Kd with HLA-B*40:01 [1] (setting [6]) was at least 63.7 µM; in the experiment with HLA-B*40:02 (setting [6]), 0.0151 µM; with HLA-B*44:03 (setting [6]), 17.3 µM; in the experiment with HLA-B*18:01 (setting [6]), at least 28.3 µM; with HLA-B*45:01 (setting [6]) it was 0.643 µM; in the experiment with HLA-B*44:02 (setting [6]) it was 16.1 µM.

As for IVIAPAMGM, the Kd in the experiment with HLA-A*26:01 [2] is at least 20 µM.

Regarding YHHTAINVL, the Kd in the experiment with HLA-B*39:01 is 0.0063 µM.

Turning to FEEALNVALA, the Kd was 5.56 µM with HLA-B*40:01 [1] (setting [7]); 0.279 µM in the experiment with HLA-B*40:02 (setting [7]); at least 70.1 µM with HLA-B*44:03 (setting [7]); 0.0991 µM with HLA-B*18:01 (setting [7]); 0.0893 µM with HLA-B*45:01 (setting [7]); at least 70.2 µM with HLA-B*44:02 (setting [7]).

In the case of AEAQMSIQL, the Kd with HLA-B*40:01 [1] (setting [8]) was 0.0229 µM; with HLA-B*40:02 (setting [8]), 0.0126 µM; with HLA-B*44:03 (setting [8]) it was 0.106 µM; in the experiment with HLA-B*18:01 (setting [8]), at least 23.7 µM; with HLA-B*45:01 (setting [8]) it was 0.246 µM; with HLA-B*44:02 (setting [8]) it was 0.0374 µM.

In the case of NELTLIDFYL, the Kd came to 0.231 µM with HLA-B*40:01 [1] (setting [9]); 0.126 µM with HLA-B*40:02 (setting [9]); 0.051 µM in the experiment with HLA-B*44:03 (setting [9]); 0.604 µM in the experiment with HLA-B*18:01 (setting [9]); 1.08 µM in the experiment with HLA-B*45:01 (setting [9]); 0.157 µM with HLA-B*44:02 (setting [9]).

As to QELGHEDLMA, the Kd with HLA-B*40:01 [1] (setting [9]) was at least 26.9 µM; in the experiment with HLA-B*40:02 (setting [9]), 2.58 µM; in the experiment with HLA-B*44:03 (setting [9]), 2.35 µM; with HLA-B*18:01 (setting [9]), at least 70.5 µM; with HLA-B*45:01 (setting [9]) it was 0.671 µM; with HLA-B*44:02 (setting [9]), 4.15 µM.

QELGKYEQYI: the Kd with HLA-B*40:01 [1] (setting [9]) was 13 µM; in the experiment with HLA-B*40:02 (setting [9]), 0.507 µM; with HLA-B*44:03 (setting [9]), 0.187 µM; in the experiment with HLA-B*18:01 (setting [9]) it was at least 70.5 µM; in the experiment with HLA-B*45:01 (setting [9]) it was at least 20.6 µM; with HLA-B*44:02 (setting [9]) it was 0.207 µM.

Regarding REIGFIVPGL, the Kd in the experiment with HLA-B*40:01 [1] (setting [9]) worked out at 0.000132 µM; in the experiment with HLA-B*40:02 (setting [9]), 0.000408 µM; with HLA-B*44:03 (setting [9]), 0.00429 µM; in the experiment with HLA-B*18:01 (setting [9]), 8.67 µM; in the experiment with HLA-B*45:01 (setting [9]) it was 0.103 µM; in the experiment with HLA-B*44:02 (setting [9]) it was 0.0143 µM.

Turning to GECPKFVFPL, the Kd with HLA-B*40:01 [1] (setting [9]) was 0.00273 µM; with HLA-B*40:02 (setting [9]), 0.00128 µM; in the experiment with HLA-B*44:03 (setting [9]) it was 0.671 µM; with HLA-B*18:01 (setting [9]), at least 70.5 µM; with HLA-B*45:01 (setting [9]) it was 3.6 µM; in the experiment with HLA-B*44:02 (setting [9]), 0.952 µM.

On to YLKPKIWRF, for which the Kd with HLA-B*08:01 (source organism: Campylobacter jejuni subsp. jejuni 81-176) came to 0.008 µM.

Regarding SDSVCACGL, the Kd is at least 44 µM with HLA-B*40:01 [1] (setting [10]); 3.88 µM with HLA-B*40:02 (setting [10]); 2.83 µM with HLA-B*44:03 (setting [10]); at least 77.5 µM with HLA-B*18:01 (setting [10]); 10.6 µM with HLA-B*45:01 (setting [10]); 3.09 µM with HLA-B*44:02 (setting [10]).

Regarding REPETTVVL, the Kd with HLA-B*40:01 [1] (setting [10]) was 0.112 µM; with HLA-B*40:02 (setting [10]) it was 0.0927 µM; with HLA-B*44:03 (setting [10]), at least 44.3 µM; with HLA-B*18:01 (setting [10]) it was 7.9 µM; with HLA-B*45:01 (setting [10]) it was at least 74.8 µM; in the experiment with HLA-B*44:02 (setting [10]), 18.6 µM.

For the sequence ETKGKRRLL, the Kd is at least 20 µM with HLA-B*40:01 [3]; at least 20 µM in the experiment with HLA-B*58:01; at least 20 µM in the experiment with HLA-A*11:01; at least 20 µM with HLA-A*02:01; 7.47 µM with HLA-B*08:01 (source organism: Haemophilus influenzae); at least 20 µM in the experiment with HLA-B*27:05. Further, the Kd in the experiment with HLA-A*69:01 is at least 20 µM; in the experiment with HLA-A*26:01 [4] it was 7.12 µM; with HLA-B*07:02, at least 20 µM; with HLA-A*03:01, at least 20 µM; with HLA-A*31:01, at least 20 µM; with HLA-A*01:01, at least 20 µM.

Usually Kd stands for the constant that tells how readily two partners part at equilibrium.
